# Measured values from paper doi:10.64898/2025.12.16.694593 (bioRxiv, 2025).
# How the values were obtained:
# [1] = target: His-SNAP-Mtb Ku (Mycobacterium tuberculosis) (UniProt P9WKD9); assay: SEC
# Mtb LigD WT = Mtb LigD WT (Mycobacterium tuberculosis, UniProt P9WNV3 1-759); assay: […]
# Mtb LigD WT, sequence (P9WNV3 whole entry): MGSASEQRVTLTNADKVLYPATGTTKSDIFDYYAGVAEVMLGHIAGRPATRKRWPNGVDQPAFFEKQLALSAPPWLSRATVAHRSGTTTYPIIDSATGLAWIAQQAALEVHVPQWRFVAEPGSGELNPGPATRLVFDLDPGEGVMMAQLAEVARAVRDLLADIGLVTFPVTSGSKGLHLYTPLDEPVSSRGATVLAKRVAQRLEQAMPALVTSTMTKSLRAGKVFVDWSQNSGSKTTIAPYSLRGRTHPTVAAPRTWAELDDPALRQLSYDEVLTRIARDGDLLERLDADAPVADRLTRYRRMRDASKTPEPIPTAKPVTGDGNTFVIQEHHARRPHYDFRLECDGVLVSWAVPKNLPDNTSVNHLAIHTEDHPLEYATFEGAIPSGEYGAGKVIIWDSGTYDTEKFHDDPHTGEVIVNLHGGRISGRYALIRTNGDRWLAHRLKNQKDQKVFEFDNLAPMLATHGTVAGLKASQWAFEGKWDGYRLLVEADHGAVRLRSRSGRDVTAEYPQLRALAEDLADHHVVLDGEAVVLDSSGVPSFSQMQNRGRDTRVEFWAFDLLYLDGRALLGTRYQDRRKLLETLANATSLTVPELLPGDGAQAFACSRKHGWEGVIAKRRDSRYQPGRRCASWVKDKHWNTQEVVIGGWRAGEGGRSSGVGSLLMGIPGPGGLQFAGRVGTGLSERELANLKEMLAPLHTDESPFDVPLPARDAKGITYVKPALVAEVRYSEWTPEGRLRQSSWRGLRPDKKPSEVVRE
Molecule,stoichiometry N [1],binding result (Mtb LigD WT)
His-SNAP-Mtb Ku (from UniProt P9WKD9 1-273) (natural protein),2,
His-SNAP-Mtb Ku (natural protein) MRAIWTGSIAFGLVNVPVKVYSATADHDIRFHQVHAKDNGRIRYKRVCEACGEVVDYRDLARAYESGDGQMVAITDDDIASLPEERSREIEVLEFVPAADVDPMMFDRSYFLEPDSKSSKSYVLLAKTLAETDRMAIVHFTLRNKTRLAALRVKDFGKREVMMVHTLLWPDEIRDPDFPVLDQKVEIKPAELKMAGQVVDSMADDFNPDRYHDTYQEQLQELIDTKLEGGQAFTAEDQPRLLDEPEDVSDLLAKLEASVKARSKANSNVPTPP,,binds
